The values that follow come from US20260146107A1 (ALLIGATOR BIOSCIENCE, published 2026).

Positions count from the first letter of the chain named.

Sequences and labels used below:
T1: human CEACAM5, recombinant (R&D Systems #4128-CM-050) (human, UniProt P06731 35-685)
T1 construct: Bought; coated in ELISA and used as monomeric analyte in Octet; also called hCEACAM-5; Human CEACAM5-His; not shown: His tag
T1 sequence (looked up): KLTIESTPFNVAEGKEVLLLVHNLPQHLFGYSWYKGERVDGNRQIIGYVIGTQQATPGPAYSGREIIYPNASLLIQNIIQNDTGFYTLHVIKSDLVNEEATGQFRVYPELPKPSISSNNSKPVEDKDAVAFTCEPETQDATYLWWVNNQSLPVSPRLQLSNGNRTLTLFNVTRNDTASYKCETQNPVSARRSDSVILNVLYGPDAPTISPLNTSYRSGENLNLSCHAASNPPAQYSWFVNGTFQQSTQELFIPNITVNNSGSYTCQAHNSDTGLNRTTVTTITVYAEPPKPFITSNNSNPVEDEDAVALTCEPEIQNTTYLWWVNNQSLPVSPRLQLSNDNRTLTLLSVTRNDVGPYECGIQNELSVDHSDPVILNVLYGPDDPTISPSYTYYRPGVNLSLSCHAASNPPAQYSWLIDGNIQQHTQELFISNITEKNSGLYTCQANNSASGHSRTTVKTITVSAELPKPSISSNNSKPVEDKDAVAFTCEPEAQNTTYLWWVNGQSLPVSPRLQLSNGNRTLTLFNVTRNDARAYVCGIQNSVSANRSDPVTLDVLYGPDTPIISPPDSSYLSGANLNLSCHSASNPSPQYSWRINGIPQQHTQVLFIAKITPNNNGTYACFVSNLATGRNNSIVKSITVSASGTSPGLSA

T2: human CEACAM1, recombinant (R&D Systems #2244-CM-050) (human, UniProt P13688 35-428)
T2 construct: also called hCEACAM-1
T2 sequence (looked up): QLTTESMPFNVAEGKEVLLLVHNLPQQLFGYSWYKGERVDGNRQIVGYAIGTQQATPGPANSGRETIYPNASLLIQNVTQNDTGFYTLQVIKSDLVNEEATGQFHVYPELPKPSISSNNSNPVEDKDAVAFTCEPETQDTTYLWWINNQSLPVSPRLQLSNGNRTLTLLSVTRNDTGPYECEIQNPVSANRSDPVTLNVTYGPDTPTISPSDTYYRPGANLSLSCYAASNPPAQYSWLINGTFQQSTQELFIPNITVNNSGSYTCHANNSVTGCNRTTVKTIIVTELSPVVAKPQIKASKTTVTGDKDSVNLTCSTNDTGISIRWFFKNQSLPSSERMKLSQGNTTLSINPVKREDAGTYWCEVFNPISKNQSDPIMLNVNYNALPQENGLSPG

B1: Multi42 (bispecific antibody, human IgG1, kappa, L234A L235A)
chain 1: not shown
chain 2: EIVLTQSPGTLSLSPGERATLSCRASQSVSSSYLAWYQEKPGQAPRLLIYGASSRATGIPDRFSGSGSGTDFTLTISRLEPEDFAVYYCQQYWYPLTFGQGTKLEIKRTVAAPSVFIFPPSDEQLKSGTASVVCYLNNFYPREAKVQWKVDNALQSGNSQESVTEQDSKDSTYSLWSTLTLSKADYEKHKVYACEVTHQGLSSPVTKSFNRGEC
chain 3: EVQLLESGGGLVQPGGSLRLSCAASGFTFSTYGMHWVREAPGKGLEWLSYISGGSSYIFYADSVKGRFTISRDNSKNTLYLQMNSLRAEDTAVYYCARILRGGSGMDLWGQGTLVTVSSASTKGPSVFPLAPSSKSTSGGTAALGCLVKDYFPEPVTVSWNSGALTSGVHTFPAVLQSSGLYSLTSVVEVPSSSLGTQTYICNVNHKPSNTKVDKKVEPKSC
B2: AC_05081 (antibody, human IgG1, kappa, V domains shown)
VH: EVQLLESGGGLVQPGGSLRLSCAASGFTFSSSYMGWVRQAPGKGLEWVSSIGSGSYSTSYADSVKGRFTISRDNSKNTLYLQMNSLRAEDTAVYYCARYPSVPFQPHLDYWGQGTLVTVSS
VL: DIQMTQSPSSLSASVGDRVTITCRASQSISSYLNWYQQKPGKAPKLLIYAASSLQSGVPSRFSGSGSGTDFTLTISSLQPEDFATYYCQQAGNPHTFGQGTKLEIKR
B3: AC_05059 (antibody, human IgG1, kappa, V domains shown)
VH: B2 VH with Q105P
VL: B2 VL
B4: AC_05080 (antibody, V domains shown)
VH: B2 VH with Q105P, H107L
VL: DIQMTQSPSSLSASVGDRVTITCRASQSISSYLNWYQQKPGKAPKLLIYAASSLQSGVPSRFSGSGSGTDFTLTISSLQPEDFATYYCQQAGNPHTFGQGTKLEIK
B5: AC_05093 (antibody, human IgG1, kappa, V domains shown)
VH: B2 VH with Q105P, L108V
VL: B2 VL
B6: AC_05088 (antibody, human IgG1, kappa, V domains shown)
VH: B2 VH with P103L, Q105P
VL: B2 VL
B7: AC_05094 (antibody, human IgG1, kappa, V domains shown)
VH: B2 VH with Q105P, L108W
VL: B2 VL
B8: AC_05089 (antibody, human IgG1, kappa, V domains shown)
VH: B2 VH with Q105P, P106H
VL: B2 VL
B9: AC_05090 (antibody, human IgG1, kappa, V domains shown)
VH: B2 VH with Q105P, P106L
VL: B2 VL
B10: AC_05097 (antibody, human IgG1, kappa, V domains shown)
VH: B2 VH with Q105S
VL: B2 VL
B11: AC_05091 (antibody, human IgG1, kappa, V domains shown)
VH: B2 VH with Q105P, L108F
VL: B2 VL
B12: AC_05079 (antibody, human IgG1, kappa, V domains shown)
VH: B2 VH with Q105P, H107P
VL: B2 VL
B13: AC_05086 (antibody, V domains shown)
VH: B2 VH with R98H, Q105P
VL: B4 VL
B14: AC_05099 (antibody, V domains shown)
VH: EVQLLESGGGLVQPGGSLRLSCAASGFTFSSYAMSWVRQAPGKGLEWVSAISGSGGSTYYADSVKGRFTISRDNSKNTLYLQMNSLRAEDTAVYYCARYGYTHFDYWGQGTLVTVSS
VL: B4 VL

The target in the first test is human CD40 expressed on cells (CD40 reporter cells, HEK Blue CD40L cells, primary B cells, tumour APCs) (human, UniProt P25942 21-277). The experiment in a line: cell-based or functional assay.
Chain of human CD40 expressed on cells (CD40 reporter cells, HEK Blue CD40L cells, primary B cells, tumour APCs) (P25942 21-277): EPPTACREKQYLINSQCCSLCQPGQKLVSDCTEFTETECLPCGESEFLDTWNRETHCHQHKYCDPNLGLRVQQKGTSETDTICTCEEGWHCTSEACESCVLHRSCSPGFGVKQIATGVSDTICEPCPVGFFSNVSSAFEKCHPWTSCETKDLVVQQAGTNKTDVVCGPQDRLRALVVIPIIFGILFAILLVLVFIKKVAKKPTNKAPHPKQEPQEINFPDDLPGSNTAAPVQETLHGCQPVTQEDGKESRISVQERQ
Turning to B1, the “EC50 of SEAP release, HEK Blue CD40L reporter cells, bsAb crosslinked to CHO-CEACAM5 cells, 0 Raji sink cells/well” value stood at 0.04 nM; the “EC50 of SEAP release, same assay, 10 000 Raji sink cells/well” value amounted to 0.06 nM; the “EC50 of SEAP release, same assay, 30 000 Raji sink cells/well” value stood at 0.11 nM; the “EC50 of SEAP release, same assay, 90 000 Raji sink cells/well” value came to 0.36 nM.

For the next test, the target named is T1, human CEACAM5, recombinant (R&D Systems …). The experiment in a line: Octet BLI, IgG1 captured on AHC tips, CEACAM5-His in solution, 1:1 fit. As to the method: Kinetic measurements were performed in the Octet RED96 platform using several different setups. Monoclonal antibodies (listed in Table 9), serially diluted ½ starting at 100 nM, were captured to anti human IgG Fc Capture (AHC) Biosensor tips (Sartorius #18-5060). Human CEACAM5-His (R&D Systems #4128-CM-050) diluted in 1× kinetic buffer (Sartorius) at 100 nM was then added. Binding kinetics was studied in 1× kinetic buffer where association was allowed for 300 sec followed by dissociation for 600 sec. Sensor tips were regenerated with 10 mM Glycine pH 1.7. Data generated were referenced by subtracting blank or parallel buffer blank, the baseline was aligned to the y-axis, inter-step correction by alignment against dissociation was performed and the data was smoothed by Savitzky-Golay filter in the data analysis software (v9.0.0.14). The processed data was fitted using a 1:1 Langmuir binding model with R² or X² as a measurement of fitting accuracy.
(In BLI a coated tip is dipped into the sample, and binding shifts an interference pattern.)
The term Kd denotes the equilibrium constant for the complex coming apart. The koff is the first-order rate constant of dissociation. Usually kon stands for the rate constant with which the complex forms. Take B2: the Kd came to 100 nM, the off-rate (koff) is 0.008 s⁻¹ and the kon was 60000 M⁻¹ s⁻¹.

Take B3: the Kd is under 0.001 nM, the off-rate constant (koff) was under 1e-07 s⁻¹ and the kon was 300000 M⁻¹ s⁻¹.

Consider B4, for which the dissociation constant (Kd) stood at 0.008 nM, the koff came out at 2e-06 s⁻¹ and the kon was found to be 200000 M⁻¹ s⁻¹.

Take B5: the Kd was determined as 0.4 nM, the koff came out at 0.0001 s⁻¹ and the kon was 300000 M⁻¹ s⁻¹.

In the case of B6, the dissociation constant Kd came out at 20 nM, the off-rate constant (koff) worked out at 0.03 s⁻¹ and the on-rate constant (kon) came to 1e+06 M⁻¹ s⁻¹.

For B7, the Kd is 50 nM, the off-rate (koff) turned out to be 0.0008 s⁻¹ and the kon is 20000 M⁻¹ s⁻¹.

Take B8: the Kd came to 40 nM, the off-rate constant (koff) was determined as 0.01 s⁻¹ and the association rate constant (kon) is 300000 M⁻¹ s⁻¹.

Consider B9, for which the Kd came to 20 nM, the off-rate (koff) worked out at 0.004 s⁻¹ and the kon is 300000 M⁻¹ s⁻¹.

On to B10, for which the Kd was 0.07 nM, the off-rate (koff) is 2e-05 s⁻¹ and the kon stood at 200000 M⁻¹ s⁻¹.

Consider B11, for which the dissociation constant Kd came out at 2 nM, the koff was determined as 0.0003 s⁻¹ and the on-rate (kon) is 200000 M⁻¹ s⁻¹.

For another test the target is unchanged. Put plainly: ELISA, antigen coated at 0.5 µg/mL, IgG1 antibody at 10 µg/ml, anti-human kappa-HRP, luminescence. As to the method:
(§1) 96-well plates were coated with 0.5 μg/mL antigen, hCEACAM-5 (4128-CM-050, R&D Systems), hCEACAM-1 (2244-CM-050, R&D Systems), hCEACAM-6(3934-CM-050, R&D Systems) or CEACAM-8 (9639-CM-050, R&D Systems) in PBS over night at 4° C. After washing with PBS/0.05% Tween 20 (PBST), the plates were blocked with PBST, 2% BSA for at least 30 minutes at room temperature before a second round of washing. […] After washing, plates were incubated with 50 μl detection antibody (0.5 μg/ml HRP conjugated goat anti human-kappa light chain, #STAR127P, AbD Serotec). Finally, a final round of washing was performed and bound complexes detected using SuperSignal Pico Luminescent as substrate and luminescence signals were measured using Fluostar Optima.
On the technique in general: An ELISA detects its analyte on a solid surface through an enzyme-linked reagent.
Turning to B12, the binding result is on record as “binds”.

As to B13, the binding result is reported as “binds”.

The target in another test is T2, human CEACAM1, recombinant (R&D Systems …). The test is described as above. As to the method:
as §1
In the case of B14, the binding result is given as “no binding (tested: 10 µg/ml)”.

On to B2, for which the binding result was “no binding (tested: 10 µg/ml)”.

B4: the binding result is “binds”.

Consider B12, for which the binding result is “no binding (tested: 10 µg/ml)”.

Consider B5, for which the binding result was “no binding (tested: 10 µg/ml)”.

For the molecule B6, the binding result is on record as “no binding (tested: 10 µg/ml)”.

For B7, the binding result is listed as “no binding (tested: 10 µg/ml)”.

Take B8: the binding result was “no binding (tested: 10 µg/ml)”.

On to B13, for which the binding result is reported as “binds”.

Regarding B9, the binding result is “no binding (tested: 10 µg/ml)”.

Regarding B10, the binding result is “no binding (tested: 10 µg/ml)”.

Take B11: the binding result is “no binding (tested: 10 µg/ml)”.
